According to US20180273595A1 (REGENTS OF THE UNIVERSITY OF MICHIGAN, published 2018):
Where no end group is shown, it is not given here. The star is where a group is joined. Biotin = O=C1N[C@H]2[C@H](CS[C@H]2CCCCC(=O)*)N1

Columns and labels:
[1] = molecular target: T1, recombinant His-tagged full-length ERG (UniProt P11308 1-479, biotinylated with NHS-PEG4 biotin for the OctetRED assays); assay: binding assay of capped EIP1 variants (FIG. 13); capped EIP1, Y4K
T1 construct: mature; Baculovirus expression in SF9 cells, Ni-NTA purified; also called wild-type ERG; wtERG; not shown: His tag
T1 sequence (looked up): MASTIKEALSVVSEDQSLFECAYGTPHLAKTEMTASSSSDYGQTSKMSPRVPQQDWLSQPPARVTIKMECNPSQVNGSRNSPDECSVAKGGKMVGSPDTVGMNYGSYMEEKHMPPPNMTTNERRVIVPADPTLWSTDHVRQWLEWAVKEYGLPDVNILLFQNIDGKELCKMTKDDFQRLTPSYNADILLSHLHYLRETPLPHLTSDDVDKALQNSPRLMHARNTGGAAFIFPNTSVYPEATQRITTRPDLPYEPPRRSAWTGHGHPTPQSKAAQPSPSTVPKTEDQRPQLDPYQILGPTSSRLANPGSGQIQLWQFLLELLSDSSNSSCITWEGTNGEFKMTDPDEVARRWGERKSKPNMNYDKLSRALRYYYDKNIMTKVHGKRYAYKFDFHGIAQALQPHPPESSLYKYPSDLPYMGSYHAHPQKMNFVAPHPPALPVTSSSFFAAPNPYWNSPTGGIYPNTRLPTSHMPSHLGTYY

[2] = molecular target: T1, recombinant His-tagged full-length ERG; assay: Kd table of synthetic peptides on ERG; assay not given
[3] = molecular target: T2, Halo-tagged full-length ETS1 (UniProt P14921 1-441); assay: pull-down of in vitro translated Halo-tagged protein with biotinylated peptide, anti-Halo immunoblot [cont'd]
T2 construct: mature; not shown: Halo-tag at the N-terminus
T2 sequence (looked up): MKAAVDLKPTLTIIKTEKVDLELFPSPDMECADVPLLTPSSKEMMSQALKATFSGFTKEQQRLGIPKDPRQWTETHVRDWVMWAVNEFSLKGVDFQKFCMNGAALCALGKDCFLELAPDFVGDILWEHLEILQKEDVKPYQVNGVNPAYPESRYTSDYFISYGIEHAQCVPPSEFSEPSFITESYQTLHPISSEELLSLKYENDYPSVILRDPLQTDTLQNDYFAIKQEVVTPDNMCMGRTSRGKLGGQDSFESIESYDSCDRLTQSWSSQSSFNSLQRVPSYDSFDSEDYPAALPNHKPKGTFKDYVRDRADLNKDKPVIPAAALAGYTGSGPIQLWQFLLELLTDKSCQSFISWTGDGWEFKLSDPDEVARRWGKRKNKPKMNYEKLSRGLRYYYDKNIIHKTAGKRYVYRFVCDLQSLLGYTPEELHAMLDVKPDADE

[4] = molecular target: T3, Halo-tagged full-length ETV1 (UniProt P50549 1-477); assay: as above
T3 construct: mature; not shown: Halo-tag at the N-terminus
T3 sequence (looked up): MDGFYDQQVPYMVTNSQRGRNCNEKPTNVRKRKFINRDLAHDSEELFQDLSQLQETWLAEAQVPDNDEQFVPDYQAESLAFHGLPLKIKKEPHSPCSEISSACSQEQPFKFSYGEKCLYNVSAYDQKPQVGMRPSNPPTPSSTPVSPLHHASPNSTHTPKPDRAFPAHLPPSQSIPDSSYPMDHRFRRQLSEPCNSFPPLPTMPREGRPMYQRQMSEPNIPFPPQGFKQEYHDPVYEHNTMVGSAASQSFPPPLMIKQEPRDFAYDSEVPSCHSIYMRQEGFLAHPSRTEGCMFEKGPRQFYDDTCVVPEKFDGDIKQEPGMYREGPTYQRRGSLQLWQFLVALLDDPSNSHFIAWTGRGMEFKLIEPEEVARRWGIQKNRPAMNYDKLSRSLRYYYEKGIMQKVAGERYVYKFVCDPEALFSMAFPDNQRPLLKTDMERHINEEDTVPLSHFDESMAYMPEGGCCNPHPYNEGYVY

[5] = molecular target: T4, Halo-tagged full-length ETV6 (UniProt P41212 1-452); assay: as above
T4 construct: mature; not shown: Halo-tag at the N-terminus
T4 sequence (looked up): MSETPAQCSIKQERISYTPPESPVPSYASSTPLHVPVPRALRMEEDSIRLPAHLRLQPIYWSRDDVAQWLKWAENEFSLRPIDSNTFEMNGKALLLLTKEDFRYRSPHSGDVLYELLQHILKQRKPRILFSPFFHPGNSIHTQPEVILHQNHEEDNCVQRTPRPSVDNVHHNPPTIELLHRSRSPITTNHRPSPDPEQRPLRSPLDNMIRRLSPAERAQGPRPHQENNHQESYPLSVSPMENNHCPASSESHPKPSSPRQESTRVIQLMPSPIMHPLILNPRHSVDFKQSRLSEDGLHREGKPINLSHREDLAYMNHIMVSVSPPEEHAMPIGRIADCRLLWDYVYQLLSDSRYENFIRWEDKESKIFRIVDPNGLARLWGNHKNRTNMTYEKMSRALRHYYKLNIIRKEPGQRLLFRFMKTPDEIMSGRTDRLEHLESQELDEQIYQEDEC

[6] = molecular target: T5, Halo-tagged full-length Fli1 (UniProt Q01543 1-452); assay: as above
T5 construct: mature; not shown: Halo-tag at the N-terminus
T5 sequence (looked up): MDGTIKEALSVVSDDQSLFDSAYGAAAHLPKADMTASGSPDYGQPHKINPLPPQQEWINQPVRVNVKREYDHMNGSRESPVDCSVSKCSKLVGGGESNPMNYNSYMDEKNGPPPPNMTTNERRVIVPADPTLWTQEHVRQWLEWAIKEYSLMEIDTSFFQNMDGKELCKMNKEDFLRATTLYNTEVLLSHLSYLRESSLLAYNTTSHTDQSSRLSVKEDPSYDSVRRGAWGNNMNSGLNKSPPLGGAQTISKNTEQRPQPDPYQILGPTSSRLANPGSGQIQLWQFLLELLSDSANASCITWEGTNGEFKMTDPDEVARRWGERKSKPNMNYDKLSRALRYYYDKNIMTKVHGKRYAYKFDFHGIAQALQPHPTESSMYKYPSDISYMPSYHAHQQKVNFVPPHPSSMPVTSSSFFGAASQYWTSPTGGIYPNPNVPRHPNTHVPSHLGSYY

[7] = molecular target: T6, Halo-tagged full-length ERG (UniProt P11308 1-479); assay: as above
T6 construct: mature; In vitro transcription/translation in wheat germ lysate; also called Halo-ERG fusion protein; not shown: HaloTag (about 35 kDa), N-terminal
T6 sequence (looked up): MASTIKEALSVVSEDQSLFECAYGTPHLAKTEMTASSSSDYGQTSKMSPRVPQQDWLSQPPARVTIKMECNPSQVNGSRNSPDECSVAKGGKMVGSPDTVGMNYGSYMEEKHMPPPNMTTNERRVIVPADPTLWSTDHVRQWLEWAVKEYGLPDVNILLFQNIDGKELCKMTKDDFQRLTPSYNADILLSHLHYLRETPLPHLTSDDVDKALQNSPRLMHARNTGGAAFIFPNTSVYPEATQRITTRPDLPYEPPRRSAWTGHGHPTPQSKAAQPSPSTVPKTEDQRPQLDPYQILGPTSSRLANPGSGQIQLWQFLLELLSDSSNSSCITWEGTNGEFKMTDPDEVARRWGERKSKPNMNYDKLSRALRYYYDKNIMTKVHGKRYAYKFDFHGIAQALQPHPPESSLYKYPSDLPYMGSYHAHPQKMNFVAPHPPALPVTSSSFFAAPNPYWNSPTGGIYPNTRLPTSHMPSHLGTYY

[8] = molecular target: T7, ERG_Y373A (purified recombinant ERG with Y373A) (UniProt P11308 1-479, limits assumed, biotinylated for OctetRED); assay: pull-down of purified recombinant proteins with biotin peptide
T7 construct: also called Y373A mutation
T7 sequence (looked up): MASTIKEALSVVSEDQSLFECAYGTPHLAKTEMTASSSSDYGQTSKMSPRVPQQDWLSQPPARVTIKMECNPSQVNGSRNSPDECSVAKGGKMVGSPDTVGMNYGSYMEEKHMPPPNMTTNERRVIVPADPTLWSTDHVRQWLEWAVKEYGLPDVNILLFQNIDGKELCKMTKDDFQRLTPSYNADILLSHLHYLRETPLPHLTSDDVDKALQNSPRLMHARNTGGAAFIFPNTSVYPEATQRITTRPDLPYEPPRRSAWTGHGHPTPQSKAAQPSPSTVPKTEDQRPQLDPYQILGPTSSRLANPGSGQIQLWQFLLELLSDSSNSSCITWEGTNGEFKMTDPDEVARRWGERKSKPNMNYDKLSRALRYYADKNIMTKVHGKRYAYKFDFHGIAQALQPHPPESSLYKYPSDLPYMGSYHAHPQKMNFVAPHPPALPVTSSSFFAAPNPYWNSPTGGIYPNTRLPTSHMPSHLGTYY

[9] = molecular target: T8, TMPRSS2:ERG gene fusion product, endogenous in VCaP cells (UniProt P11308 33-479, limits assumed); assay: pull-down of VCaP lysate with biotinylated peptide, ERG immunoblot
T8 construct: In cell lysates, in cells or in xenograft tumors; also called endogenous ERG; VCaP ERG
T8 sequence (looked up): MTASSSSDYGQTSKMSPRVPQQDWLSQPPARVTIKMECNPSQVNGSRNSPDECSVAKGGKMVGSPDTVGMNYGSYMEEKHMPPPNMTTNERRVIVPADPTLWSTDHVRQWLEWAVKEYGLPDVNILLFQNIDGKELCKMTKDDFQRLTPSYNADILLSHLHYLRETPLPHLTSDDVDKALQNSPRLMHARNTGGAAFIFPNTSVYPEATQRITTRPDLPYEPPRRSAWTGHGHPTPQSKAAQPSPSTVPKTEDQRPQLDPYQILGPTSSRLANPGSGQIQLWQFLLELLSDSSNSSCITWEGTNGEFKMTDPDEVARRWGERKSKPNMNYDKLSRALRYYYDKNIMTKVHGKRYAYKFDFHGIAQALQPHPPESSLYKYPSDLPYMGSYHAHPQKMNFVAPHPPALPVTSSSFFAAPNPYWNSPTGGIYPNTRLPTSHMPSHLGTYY

[10] = molecular target: T9, wild-type ERG endogenous in HUVEC cells (human, UniProt P11308 1-479, limits assumed); assay: pull-down of whole cell lysate with biotinylated peptide, WB: αERG
T9 construct: also called HUVEC ERG
T9 sequence (looked up): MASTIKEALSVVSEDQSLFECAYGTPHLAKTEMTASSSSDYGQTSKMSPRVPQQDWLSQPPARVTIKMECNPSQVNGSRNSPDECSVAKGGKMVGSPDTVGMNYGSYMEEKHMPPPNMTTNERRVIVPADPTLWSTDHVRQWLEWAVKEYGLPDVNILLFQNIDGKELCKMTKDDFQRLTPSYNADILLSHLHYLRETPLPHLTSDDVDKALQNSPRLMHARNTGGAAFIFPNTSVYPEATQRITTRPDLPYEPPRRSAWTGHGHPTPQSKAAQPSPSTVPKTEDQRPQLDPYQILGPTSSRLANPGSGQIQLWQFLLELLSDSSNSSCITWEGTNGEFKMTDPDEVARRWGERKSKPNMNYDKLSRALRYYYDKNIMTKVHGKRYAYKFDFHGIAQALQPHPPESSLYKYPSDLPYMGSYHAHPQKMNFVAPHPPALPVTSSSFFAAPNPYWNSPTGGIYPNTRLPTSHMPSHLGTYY

[11] = molecular target: T10, wild-type ERG endogenous in MS1 mouse endothelial cells (mouse, UniProt P81270 1-486, limits assumed); assay: as above
T10 construct: also called mERG; MS1 ERG
T10 sequence (looked up): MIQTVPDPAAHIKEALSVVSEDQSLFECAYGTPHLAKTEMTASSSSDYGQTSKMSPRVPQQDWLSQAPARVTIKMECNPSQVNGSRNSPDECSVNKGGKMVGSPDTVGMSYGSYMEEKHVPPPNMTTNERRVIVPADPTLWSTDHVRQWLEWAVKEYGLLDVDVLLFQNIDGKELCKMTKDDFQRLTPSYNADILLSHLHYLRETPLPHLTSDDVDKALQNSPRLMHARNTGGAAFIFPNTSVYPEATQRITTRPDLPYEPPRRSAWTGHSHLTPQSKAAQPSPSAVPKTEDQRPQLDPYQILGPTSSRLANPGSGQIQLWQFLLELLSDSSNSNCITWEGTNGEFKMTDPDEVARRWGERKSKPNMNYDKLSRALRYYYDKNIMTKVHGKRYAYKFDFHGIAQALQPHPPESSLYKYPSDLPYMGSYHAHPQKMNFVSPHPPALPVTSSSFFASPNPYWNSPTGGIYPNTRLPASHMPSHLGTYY

[12] = molecular target: T11, endogenous ETV1 protein of LNCaP cells (UniProt P50549 1-477, limits assumed); assay: pull-down of cell lysate with biotinylated peptide, immunoblot αETV1
T11 sequence (looked up): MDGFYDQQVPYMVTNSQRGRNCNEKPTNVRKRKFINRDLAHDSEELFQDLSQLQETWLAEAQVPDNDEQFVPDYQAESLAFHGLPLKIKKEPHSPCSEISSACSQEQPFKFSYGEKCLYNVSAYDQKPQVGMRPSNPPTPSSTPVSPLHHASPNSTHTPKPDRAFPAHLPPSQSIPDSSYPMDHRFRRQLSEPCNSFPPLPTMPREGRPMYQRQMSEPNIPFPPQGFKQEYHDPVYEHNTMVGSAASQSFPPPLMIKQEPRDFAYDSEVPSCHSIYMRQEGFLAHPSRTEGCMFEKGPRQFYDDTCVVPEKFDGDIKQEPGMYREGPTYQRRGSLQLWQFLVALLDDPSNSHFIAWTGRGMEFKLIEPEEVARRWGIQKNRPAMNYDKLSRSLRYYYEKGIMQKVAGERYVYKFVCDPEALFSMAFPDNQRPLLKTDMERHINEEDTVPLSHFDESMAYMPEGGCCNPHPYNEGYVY

[13] = molecular target: T1, recombinant His-tagged full-length ERG; assay: pull-down of purified recombinant protein with biotinylated peptide, immunoblot

Ac-LPPKLFT-NH2 [capped EIP1 with Y at position four mutated to K]
Kd [1]: 4.3 µM
Kd [2]: 4.27 µM

B1: Biotin-HSKINPT (peptide)
peptide: Biotin-HSKINPT
notes: Control of the pull-down with Biotin-LSFGSLP; also called control peptide Biotin-HSKINPT
binding result [3]: no binding
binding result [4]: no binding
binding result [5]: no binding
binding result [6]: no binding
binding result [7]: no binding

B2: biotinylated EIP1 peptide (Biotin-LPPYLFT) (peptide)
peptide: Biotin-LPPYLFT
notes: also called Biotin-EIP1; biotin-conjugated EIP1
binding result [8]: no binding

LPPALFT (also: biotin, position not given here, also called biotin-muEIP1) [biotinylated muEIP1 peptide]
binding result [9]: no binding (tested: 20 µM)
binding result [10]: no binding
binding result [11]: no binding
binding result [12]: no binding (tested: 50 µM)
binding result [13]: no binding
